In one assay the target is T1, mouse CD73 (mouse, UniProt Q61503 29-551, limits assumed).
T1 construct: also called murine CD73
T1 sequence (looked up): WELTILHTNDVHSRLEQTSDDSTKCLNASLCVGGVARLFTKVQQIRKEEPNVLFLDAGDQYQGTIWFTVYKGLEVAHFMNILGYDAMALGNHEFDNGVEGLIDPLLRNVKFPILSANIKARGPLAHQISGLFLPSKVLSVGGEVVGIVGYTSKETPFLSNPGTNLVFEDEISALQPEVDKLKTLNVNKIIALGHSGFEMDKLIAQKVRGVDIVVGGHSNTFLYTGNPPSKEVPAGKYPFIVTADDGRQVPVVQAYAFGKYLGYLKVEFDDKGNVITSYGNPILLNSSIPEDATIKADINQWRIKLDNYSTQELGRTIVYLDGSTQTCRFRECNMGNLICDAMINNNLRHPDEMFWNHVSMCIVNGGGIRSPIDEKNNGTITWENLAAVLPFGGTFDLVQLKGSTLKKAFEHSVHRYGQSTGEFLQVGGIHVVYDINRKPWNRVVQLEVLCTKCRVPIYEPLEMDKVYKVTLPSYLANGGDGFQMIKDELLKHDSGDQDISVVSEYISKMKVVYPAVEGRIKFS
The experiment in a line: SPR, mouse CD73 compared with human CD73 (reference). A general note: SPR reads the build-up and loss of mass on a sensor chip optically.

A further assay concerns the target T2, human CD73-His (human, UniProt P21589 27-549).
T2 construct: extracellular domain; The SPR analyte is only called 'human CD73-His' (non-covalent dimeric antigen); also called HuCD73 His tagged; HuCD73his20170303
T2 sequence: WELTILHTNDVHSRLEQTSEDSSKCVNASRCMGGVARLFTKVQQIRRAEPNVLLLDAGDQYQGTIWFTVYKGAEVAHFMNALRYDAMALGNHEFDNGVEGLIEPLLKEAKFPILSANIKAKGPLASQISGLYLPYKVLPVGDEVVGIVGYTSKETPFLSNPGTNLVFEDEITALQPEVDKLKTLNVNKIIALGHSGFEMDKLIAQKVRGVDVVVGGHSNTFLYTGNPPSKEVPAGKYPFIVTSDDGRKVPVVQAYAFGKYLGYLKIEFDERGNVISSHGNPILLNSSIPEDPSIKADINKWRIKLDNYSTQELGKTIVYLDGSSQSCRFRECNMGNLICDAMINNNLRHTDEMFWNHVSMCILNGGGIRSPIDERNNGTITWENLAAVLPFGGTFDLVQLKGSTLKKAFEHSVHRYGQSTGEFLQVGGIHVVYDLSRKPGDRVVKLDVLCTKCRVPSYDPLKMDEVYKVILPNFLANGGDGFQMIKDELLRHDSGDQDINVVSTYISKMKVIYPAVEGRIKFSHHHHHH
In words: SPR (ProteOn XPR36), antibody captured on Protein A/G, dimeric human CD73-His as analyte, avidity format, 1:1 Langmuir fit. On the procedure:
For the avidity format, the experiment was performed on a Bio-Rad ProteOn XPR36 instrument. Antibodies were captured via Protein A/G and the non-covalent dimeric antigens were flowed over the captured surface. The running buffer for this experiment and all dilutions were prepared in PBS-T-EDTA. The GLM sensor chip was normalized and pre-conditioned as per the manufacturer's recommendations. The sensor chip was activated with an equal mixture of EDC/s-NHS in the horizontal direction for 300 s at a flow rate of 30 μL/min and immobilized with recombinant Protein A/G (50 μg/ml in 10 mM acetate pH 4.5) in the horizontal direction for 300 s at a flow rate of 30 μL/min resulting in about 5000 RU of Protein A/G on the surface. The sensor chip was deactivated with 1M ethanolamine-HCl in the horizontal direction for 300 s at a flow rate of 30 μL/min. The sensor chip was regenerated with 18 s of 0.85% phosphoric acid at a flow rate of 100 μL/min 2 times horizontally and 2 times vertically.
About 300 RU of antibody was captured on the Protein A/G surface vertically for 60 s at a flow rate of 30 μL/min. The capture surface was stabilized by injecting PBS-T-EDTA for 60 s at a flowrate of 100 μL/min horizontally. The analyte (human CD73-His) was injected horizontally over the captured antibody for 600 s at a flow rate of 30 μL/min with a dissociation of 1200 s. The concentrations of human CD73-His were 0 nM, 3.125 nM, 6.25 nM, 12.5 nM, 25 nM and 50 nM. The surface was regenerated by injecting 0.85% phosphoric acid for 18 s at a flow rate of 100 μL/min one time horizontally and one time vertically.
The interspot (interactions with sensor surface) and blank (PBS-T-EDTA or 0 nM analyte) were subtracted from the raw data.

Assay [1] addresses T3, cell-bound CD73 (human, UniProt P21589 27-549).
T3 sequence (looked up): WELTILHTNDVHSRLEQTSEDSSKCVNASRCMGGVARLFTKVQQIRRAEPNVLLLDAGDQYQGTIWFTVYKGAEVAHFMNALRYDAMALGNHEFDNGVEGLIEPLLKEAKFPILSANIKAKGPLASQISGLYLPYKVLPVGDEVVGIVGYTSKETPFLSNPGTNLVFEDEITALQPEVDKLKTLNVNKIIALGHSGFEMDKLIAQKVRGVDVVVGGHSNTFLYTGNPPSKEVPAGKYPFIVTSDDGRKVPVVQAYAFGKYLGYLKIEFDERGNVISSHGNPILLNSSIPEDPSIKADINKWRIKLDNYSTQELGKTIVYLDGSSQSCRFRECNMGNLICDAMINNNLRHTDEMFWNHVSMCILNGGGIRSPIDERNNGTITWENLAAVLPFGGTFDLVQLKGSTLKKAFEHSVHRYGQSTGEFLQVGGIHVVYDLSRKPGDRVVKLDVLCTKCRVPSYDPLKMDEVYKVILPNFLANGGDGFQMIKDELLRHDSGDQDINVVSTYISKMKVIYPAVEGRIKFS
In words: cell-based or functional assay.

For assay [2], the target named is T3, cell-bound CD73. The experiment in a line: cell-based or functional assay. The source holds these as a separate data set.
Assay [3] concerns the target T3, cell-bound CD73. In words: cell-based or functional assay. This is another data set of the same source.
Assay [4] addresses T3, cell-bound CD73. In words: cell-based or functional assay. This is another data set of the same source.
Assay [5] deals with T4, recombinant human CD73 protein (human, UniProt P21589 27-549, limits assumed).
T4 sequence (looked up): T3 sequence (looked up)
The experiment in a line: cell-based or functional assay.

In a further assay the target is T5, non-cell-bound CD73 (human, UniProt P21589 27-549, limits assumed).
T5 sequence (looked up): T3 sequence (looked up)
In words: cell-based or functional assay.

Assay [6] concerns the target T3, cell-bound CD73. In words: cell-based or functional assay. The source holds these as a separate data set.

3 molecules from US20190352420A1 (Boehringer Ingelheim, published 2019) can be followed below.

Where a chain is given by its changes, count along the chain named.

B1: C4 (antibody, human IgG1, kappa, L234A L235A, V domains shown)
VH: QVQLVQSGAEVKKPGDSVKVSCKASGYTFTTYWMHWVRQAPGQGLEWMGAIYPGLSDTTYNQKFKGKVTMTRDTSTSTVYMKLSSLRSEDTAVYYCARLLDYAMDYWGQGTLVTVSS
VL: DIQMTQSPSSLSASVGDRVTITCRASQDIRSYLNWHQQKPGKAPKLLIWYTSRLHSGVPSRFSGSGSGTDYTLTISSLQPEDFATYFCQQGETLPWTFGQGTKLEIKR
notes: Humanized monoclonal antibody; also called C04; inventive anti-CD73 antibody C4
In the case of B1, in the assay with mouse CD73, the “fold higher binding to human CD73 than to mouse CD73” value (shortened to “fold higher binding”) came to 120 fold. In the assay with human CD73-His, this molecule registered a Kd of 0.074 nM. In addition, in the assay with cell-bound CD73 [1], the “IFNγ release [fold change over control], Donor A, 1 nM antibody” value worked out at 20.2 fold; the “IFNγ release [fold change over control], Donor B, 1 nM antibody” value is 8.7 fold; the “IFNγ release [fold change over control], Donor C, 1 nM antibody” value was determined as 35.2 fold; the “IFNγ release [fold change over control], Donor D, 1 nM antibody” value came out at 13.7 fold. Also, in the assay with cell-bound CD73 [1], the “IFNγ release [fold change over control], Donor E, 1 nM antibody” value was 14.1 fold and the “IFNγ release [fold change over control], Donor F, 1 nM antibody” value worked out at 7.1 fold. For the same molecule, in the assay with cell-bound CD73 [2], the “% of max. adenosine inhibition, washed Colo-201 cells” value worked out at 82%. Also, the “CD73 surface reduction [%] on Colo201 cells, 24 h, flow cytometry” value (shortened to “CD73 surface reduction [%]”) with cell-bound CD73 [3] is 15%. In the assay with cell-bound CD73 [4], the “Max. adenosine inhibition [%] in Colo201 cells” value (from here on “Max. adenosine inhibition [%]”) came out at 88%. Further, in assay [5], the “IC90 of inhibition of CD73 enzymatic function (luciferase-based assay)” value (“IC90 of inhibition … (luciferase-based assay)” below) worked out at 0.24 nM. Further, the “% of max. adenosine inhibition, Colo-201 culture supernatant” value with non-cell-bound CD73 worked out at 81%. In the assay with cell-bound CD73 [6], the “CD8 T cell proliferation [% of control], Donor A, 1 nM antibody” value was determined as 104%; the “CD8 T cell proliferation [% of control], Donor B, 1 nM antibody” value turned out to be 70.3%; the “CD8 T cell proliferation [% of control], Donor C, 1 nM antibody” value turned out to be 111%; the “CD8 T cell proliferation [% of control], Donor D, 1 nM antibody” value came to 98.5%. Moreover, in the assay with cell-bound CD73 [6], the “CD8 T cell proliferation [% of control], Donor E, 1 nM antibody” value stood at 100% and the “CD8 T cell proliferation [% of control], Donor F, 1 nM antibody” value came to 92.6%.

B2: C5 (antibody, human IgG1, kappa, L234A L235A, V domains shown)
VH: B1 VH with L55N
VL: B1 VL with Q79E
notes: Humanized monoclonal antibody; also called anti-CD73 antibody C5
As to B2, in the assay with mouse CD73, the “fold higher binding” value was 163 fold. Further, the Kd in the assay with human CD73-His is 0.049 nM. In addition, in the assay with cell-bound CD73 [1], the “IFNγ release [fold change over control], Donor A, 1 nM antibody” value was determined as 24.5 fold; the “IFNγ release [fold change over control], Donor B, 1 nM antibody” value is 11.3 fold; the “IFNγ release [fold change over control], Donor C, 1 nM antibody” value was determined as 59.3 fold; the “IFNγ release [fold change over control], Donor D, 1 nM antibody” value was 22.9 fold. In the assay with cell-bound CD73 [1], the “IFNγ release [fold change over control], Donor E, 1 nM antibody” value came out at 12.4 fold and the “IFNγ release [fold change over control], Donor F, 1 nM antibody” value turned out to be 5.8 fold. Also, the “% of max. adenosine inhibition, washed Colo-201 cells” value in the assay with cell-bound CD73 [2] worked out at 82%. Also, the “CD73 surface reduction [%]” value with cell-bound CD73 [3] is 19%. Also, the “Max. adenosine inhibition [%]” value with cell-bound CD73 [4] was 87%. Moreover, in [5], the “IC90 of inhibition … (luciferase-based assay)” value turned out to be 0.29 nM. In addition, the “% of max. adenosine inhibition, Colo-201 culture supernatant” value with non-cell-bound CD73 worked out at 80%. In addition, in the assay with cell-bound CD73 [6], the “CD8 T cell proliferation [% of control], Donor A, 1 nM antibody” value was determined as 103%; the “CD8 T cell proliferation [% of control], Donor B, 1 nM antibody” value came out at 80.3%; the “CD8 T cell proliferation [% of control], Donor C, 1 nM antibody” value turned out to be 101%; the “CD8 T cell proliferation [% of control], Donor D, 1 nM antibody” value stood at 99.3%. Also, in the assay with cell-bound CD73 [6], the “CD8 T cell proliferation [% of control], Donor E, 1 nM antibody” value is 100% and the “CD8 T cell proliferation [% of control], Donor F, 1 nM antibody” value was determined as 86%.

B3: C6 (antibody, human IgG1, kappa, L234A L235A, V domains shown)
VH: B1 VH with L55N
VL: B1 VL with S31N, E92N
notes: Humanized monoclonal antibody; also called anti-CD73 antibody C6
Consider B3, for which, in the assay with mouse CD73, the “fold higher binding” value was found to be 58 fold. Besides, the Kd with human CD73-His stood at 0.096 nM. For the same molecule, in the assay with cell-bound CD73 [1], the “IFNγ release [fold change over control], Donor A, 1 nM antibody” value was found to be 24.3 fold; the “IFNγ release [fold change over control], Donor B, 1 nM antibody” value was 12.9 fold; the “IFNγ release [fold change over control], Donor C, 1 nM antibody” value was 55.5 fold; the “IFNγ release [fold change over control], Donor D, 1 nM antibody” value stood at 25.8 fold. Moreover, in the assay with cell-bound CD73 [1], the “IFNγ release [fold change over control], Donor E, 1 nM antibody” value turned out to be 14 fold and the “IFNγ release [fold change over control], Donor F, 1 nM antibody” value was determined as 10.3 fold. Moreover, the “% of max. adenosine inhibition, washed Colo-201 cells” value in the assay with cell-bound CD73 [2] amounted to 81%. Further, the “CD73 surface reduction [%]” value in the assay with cell-bound CD73 [3] worked out at 19%. Also, in the assay with cell-bound CD73 [4], the “Max. adenosine inhibition [%]” value was determined as 88%. The “IC90 of inhibition … (luciferase-based assay)” value in assay [5] came to 0.24 nM. In the assay with non-cell-bound CD73, the “% of max. adenosine inhibition, Colo-201 culture supernatant” value is 78%. For the same molecule, in the assay with cell-bound CD73 [6], the “CD8 T cell proliferation [% of control], Donor A, 1 nM antibody” value was determined as 102%; the “CD8 T cell proliferation [% of control], Donor B, 1 nM antibody” value worked out at 65.4%; the “CD8 T cell proliferation [% of control], Donor C, 1 nM antibody” value stood at 88.3%; the “CD8 T cell proliferation [% of control], Donor D, 1 nM antibody” value amounted to 99.6%. In the assay with cell-bound CD73 [6], the “CD8 T cell proliferation [% of control], Donor E, 1 nM antibody” value is 100% and the “CD8 T cell proliferation [% of control], Donor F, 1 nM antibody” value is 91.1%.
